In IntAct's records for PubMed 17496150:

B1: "Peptide-N(4)-(N-acetyl-beta-glucosaminyl)asparagine amidase" (Mus musculus), Q9JI78 (parent)
chain: MASATLGSSSSSASPAVAELCQNTPETFLEASKLLLTYADNILRNPSDEKYRSIRIGNTAFSTRLLPVRGAVECLFEMGFEEGETHLIFPKKASVEQLQKIRDLIAIERSSRLDGSSKKVQFSQHPAAAKLPLEQSEDPAGLIRHSGNQTGQLPSLPSAPMVVGDSTILKVLQSNIQHVQLYENPVLQEKALTCIPVSELKRKAQEKLFRARKLDKGTNVSDEDFLLLELLHWFKEEFFRWVNNIVCSKCGGETRSRDEALLPNDDELKWGAKNVENHYCDACQLSNRFPRYNNPEKLLETRCGRCGEWANCFTLCCRALGFEARYVWDYTDHVWTEVYSPSQQRWLHCDACEDVCDKPLLYEIGWGKKLSYIIAFSKDEVVDVTWRYSCKHDEVMSRRTKVKEELLRETINGLNKQRQLSLSESRRKELLQRIIVELVEFISPKTPRPGELGGRVSGSLAWRVARGETGLERKEILFIPSENEKISKQFHLRYDIVRDRYIRVSDNNINISGWENGVWKMESIFRKVEKDWNMVYLARKEGSSFAYISWKFECGSAGLKVDTVSIRTSSQSFESGSVRWKLRSETAQVNLLGDKNLRSYNDFSGATEVTLEAELSRGDGDVAWQHTQLFRQSLNDSGENGLEIIITFNDL

Variants of: B1
Conditions: with tera_mouse Vcp

Variant	effect of a mutation on the interaction
N58D	disrupting interaction strength

Variants of: B1
Conditions: with tera_mouse Vcp
Remark: another data set of the same source

Variant	effect of a mutation on the interaction
R55E	disrupting interaction strength
